In the DeepSol protein solubility set:

Experiment: soluble on expression in E. coli; label from the status in PepcDB or PDB records

Sequence | soluble on expression in E. coli
MSLSSGGGQFIKPASGILTSGFSERTNPVTGKYESHKGQDIAGGGTVTVSAAASGTVVFSGFGASGSGFGGYGYVVKIDHGNGFQTLYGHMRAGSLKVVTGQQVSQGQPIGIMGSTGQSTGQHLHFEIHKNGIPVDPAPYIEGHHHHHH | soluble
STPTSQALYSDFSPPEGLEELLSAPPPDLVAQRHHGWNPKDCSENIDVKEGGLCFERRPVAQSTDGVRGKRGYSRGLHAWEISWPLEQRGTHAVVGVATALAPLQADHYAALLGSNSESWGWDIGRGKLYHQSKGLEAPQYPAGPQGEQLVVPERLLVVLDMEEGTLGYSIGGTYLGPAFRGLKGRTLYPSVSAVWGQCQVRIRYMGERRVEE | soluble
MHLSRCRKCGRVMKGERIDPYRVKLTCSCGFSDFRTMTEKVKTVNPFFQKGGFSPLLESERGKMVLTMQRANREHLEIISLEEISMLVSSDFDLPEVLQHVTAKVATQLKVSVCNIYLREGDEVVLAATHGFDPAFIGKIRIKIGDGITGSVARDGQYISLSRASQDPRYRYFPELQEEKYNSMLSFPIGDKKEVYGVINLNTTSIRSFHEDEIYFVSIIANLILTAIKLRQQVASSRKAAEASA | not soluble
MSSPKKNFKKPQPKTENQKQALNEERIAELKKSRILGKNRPFKKMIYVDTKAQRKQKHENVAFLKTLQENKESDVPKKRRGRKPKHAPLKEKNNLKLFDILEGSLKSHTENDDTNKVISLLVEVWEKKNKKKDNNSLSNKDIVNVLSKFELPDDEIIFVLDELR | soluble
GPGSMPAIVKQLPSSDDDNDQASLSPAKQYAQLGEESSPAGASRAELSNAEAGAEAEGLAQPQKTDASGAERVVDVEECSRLKAAGNELFKDGNISEALTLYRKALWCAPLKPVRPHHPATGESSGLPTPPNGSAPAASSHTATQRDETEVEQQPEDKTDYTLTAQVYCNAGFCLMKLDVKEEAAHMLSEAIRHDDSYLKAYIRRADCYYMMQKWSSAYGDYESYEKLGGVLDAQGCTRKAASKAKVDEEMQKMLGELKSLGNKILGNFGLSTDNFKFDKDPNTGGYSMRFER | soluble
MGSDKIHHHHHHMCNISHSQVQYLATKGDGDLPAGTAAGTGRTRTFTLEEARIWVQKVSDIYQTPLVTRLKEPDGKIIITAQLKGGSAKTTTTMCLAQGLSLRGRKVLVLDLDPQASLSELCGLYAEKDVTPEDTVLPYIYDQEIEGGLEARVQSTYWDGIDVIPAHTELIGAEFHLPAMQKMRPGFRFWTVLRQGLEPLRKKYDYILMDTSPSLSYLNLNALMAADAMVMPMVPENLDFISSLSFWRLFSDVSKSFIKYEKDKKYDFVSLILSRVDYGRNSSAPIVRAWAQSAYENWLHSIEVPASSVMSTGALAFSTVFDISSTHSASKSLQRVRQPLIDYCRWVDEIYSEKWRSAQ | not soluble
MKGQVVSLHLGLGSGLPKPRVEALELVAGFGAKGDRHAGKDPDRAVLVAGLSAYEKAQGAGIPLPYGALGENLLLDLDPHALPPGARLRVGEALLELSQVCPVCKSLSQFDLRLPKLLYGGRGVYARVLEGGVVRVGDPVLVLAPAR | soluble
STGNAGEWCLMESDPGVFTELIKGFGCRGAQVEEIWSLEPENFEKLKPVHGLIFLFKWQPGEEPAGSVVQDSRLDTIFFAKQVINNACATQAIVSVLLNCTHQDVHLGETLSEFKEFSQSFDAAMKGLALSNSDVIRQVHNSFARQQMFEFDTKTSAKEEDAFHFVSYVPVNGRLYELDGLREGPIDLGACNQDDWISAVRPVIEKRIQKYSEGEIRFNLMAIVSDRKMIYEQKIAELQRQLAEEPMDTDQGNSMLSAIQSEVAKNQMLIEEEVQKLKRYKIENIRRKHNYLPFIMELLKTLAEHQQLIPLVEKAKEKQNAKKAQETK | soluble
GPLGSPEFMEGVLYKWTNYLTGWQPRWFVLDNGILSYYDSQDDVCKGSKGSIKMAVCEIKVHSADNTRMELIIPGEQHFYMKAVNAAERQRWLVALGSSKASLTDTRT | soluble
MGSDKIHHHHHHELPDNRTELNENNVGKILLSAYPTTAICEMGEMSSDNTDAYPNRFSSFNRLQEDLYKWADSAEQDQDSPHALWESCYMAISACNEVLKVIEDAGNPASLSAEKGEALVCRAYAHFLLANIFCNAYSSQASSDLGIPYMKTIETTVSPDYQRGTLEEVYQNIEKDLLEGLDLVTDIYAVPKYHFTKKAAQAFAARFYLYYVKSDKSNYTKVIDYATKVLGSNPATSVRDWKSLGALDINGSVQPNAYVDATNGANLLLVSAGSYWGYVHAPYGLGERYAHGPKVGNETCNSVGPWGSDYYMGVWSNSSALPTKIVVMKITQYKEVVDAVAGTINGHMINAAFTTDETLLCRAEAYAMKEMYPQAIADLNIWREAYTRSTTPLTTESINDFYGSMEYYTPTESTVKKKLNPDFTITNETQENVIHCILHARRLTTLHEGLRWQDIKRYGITIYRRLMNDNGTITVTDKLEPNDPRRAIQIPSDVISAGLKPNPRTK | not soluble
MPKMDVKGIAVTVYSENAMDFISLTDMLRAKDGDFFISDWLRNRNTVEFLGIWEQVHNPNFNYGEFATIRSQAGLNSYKISVKEWVARTHAIGLVAKAGRYGGTYAHKDIAFEFGMWISAEFKIYLIKEFQRLKEAEQQQLGWDIRRNLTKINYRIHTDAIQTNLIPPALTQSQISLIYASEADLLNMALFGKTAKQWREENPNNKGNIRDEANVSQLVCLANLETLNAHFIHQGLPQVERLKILNQTAIHQMKLLLADRSLKQLDGN | not soluble
GSPGISGGGGGILMDVNVGLSRLQSQAGAPVGTKGSNTRLAAKQRETLQAYDYLCRVDEAKKWIEECLGTDLGPTSTFEQSLRNGVVLALLVQKFQPDKLIKIFYSNELQFRHSDNINKFLDFIHGIGLPEIFHFELTDIYEGKNLPKVIYCIHALSYFLSMQDLAPPLIKSDENLSFTDEDVSIIVRRLRQSNVILPNFKAL | soluble
SLFQIGDNIVYPMHGAGIIEAIEEKEFLEEKQQYYVIRMSISNMTVMIPTSKILSSNIRPVTDILALKHIMHIFQHGESDRLLPWKQRYKINTDKIKTGEIQEGAEVVRDLMRMKKEKALNASEKKMLDNAYEFLISELEVIKGITEKQIKSFG | soluble
MVMSFIKYPLPESVLQATEQRIQWVMDNFSRICVSFSGGKDSTVMLHLTAQAARLQGKKICVLFIDWEAQFSCTIAHCEKLRALYADVIETFYWVALPLTTQNALTQYKPQWQCWEPGTEWVRQPPPWAITHPGYFSFYQPGMSFEAFVSHFAEWFSQRRPAAVLVGIRADESLNRFMTISSQRKQRFADDKPWTTSAPGGHAWYIYPLYDWKTADIWTWFAKSGEPYNPLYDLMYQAGVPLRYMRICEP | not soluble
MSLKKYQLVIVGYGGMGSYHVTLASAADNLEVHGVFDILAEKREAAAQKGLKIYESYEAVLADEKVDAVLIATPNDSHKELAISALEAGKHVVCEKPVTMTSEDLLAIMDVAKRVNKHFMVHQNRRWDEDFLIIKEMFEQKTIGEMFHLESRVHGANGIPGDWRHLKAHGGGMVLDWGVHLLDQLLFLVDSNVKSVSANLSFALGDEVDDGFVTFITFENGITAQIEVGTTNFIKLPRWYVKGTEGTGIIHDWDLSGEIVKPTALAKTSEPTPIKAGQGLTKTMAPPSEEATNTLSLPAPAKLAPSFYNNFVDVLNNTSEPIVQNEEVYQVLKLIEAIFEAAETNRTVHSIEGHHHHHH | soluble
MAHHHHHHMLHNDKKNPREALDEEKPRKSNPGEVGTHRKARDTKGNKNKSGEGHITKVEGKADCEPHDVKRKGEKDKVLIQCKELQRKELEALKLIYVKDKELAIQNENDEKRDTIIHMHLNDENISDNVINLTFELPKDYPLKSFLLININVKNFTPDMNNYVNQEVYKDMPNYIAHENSILSIIYRINELVENIQNRKETLVDQSYSSSEEREENAEEEAFDSSKDQLIKDHVTFLYCSGMTYSQHRRVLARRLCYSHHILSLVKRTCIIKWAKELKIGGYSKIGYPGIIICEGPKEEVDFYINSLNKLRWKHFDCRGMDDIILKEYEDLDDARVLPKTMYELDPKGMSTLSNICTECGLRDLFLTSMKIYHS | not soluble
MIRLIFLDIDKTLIPGYEPDPAKPIIEELKDMGFEIIFNSSKTRAEQEYYRKELEVETPFISENGSAIFIPKGYFPFDVKGKEVGNYIVIELGIRVEKIREELKKLENIYGLKYYGNSTKEEIEKFTGMPPELVPLAMEREYSETIFEWSRDGWEEVLVEGGFKVTMGSRFYTVHGNSDKGKAAKILLDFYKRLGQIESYAVGDSYNDFPMFEVVDKVFIVGSLKHKKAQNVSSIIDVLEVIKHHHHHH | soluble
